Test results as given in patent publication US20250263482A1.

Molecular target: human CLDN18.2 expressed on cells (human)
Assay: cell-based or functional assay

In the case of Human IgG1 isotype antibody, the ADCC on KATOIII CLDN18.2 cells, LDH: max (% cytotoxity), run A is reported as 0.3%, the ADCC on KATOIII CLDN18.2 cells, LDH: max (% cytotoxity), run B is reported as -5.51% and the ADCC on KATOIII CLDN18.2 cells, LDH: max (% cytotoxity), run C is reported as -7.64%. It also gave an ADCC on NCI-N87 CLDN18.2 cells, LDH: max (% cytotoxity), run A of -6.73%, an ADCC on NCI-N87 CLDN18.2 cells, LDH: max (% cytotoxity), run B of -11.7% and an ADCC on NCI-N87 CLDN18.2 cells, LDH: max (% cytotoxity), run C of -9.22%. It also gave a CDC on CT26 CLDN18.2 cells, LDH: max (% cytotoxity), run A of 10.8%, a CDC on CT26 CLDN18.2 cells, LDH: max (% cytotoxity), run B of -0.23% and a CDC on CT26 CLDN18.2 cells, LDH: max (% cytotoxity), run C of -0.38%. It also gave a CDC on KATOIII CLDN18.2 cells, LDH: max (% cytotoxity), run A of -0.85%, a CDC on KATOIII CLDN18.2 cells, LDH: max (% cytotoxity), run B of -2.46% and a CDC on KATOIII CLDN18.2 cells, LDH: max (% cytotoxity), run C of -1.53%.
